Earlier results in paper PMC6173998.
Like-named read-outs stand apart in the source and are kept apart here.

Experiments:
[1] = target: KD APPH Kunitz domain (Homo sapiens) (UniProt Q06481)
[2] = target: KD APPH Kunitz domain (Homo sapiens) (UniProt Q06481); remark: listed apart in the source
FXIa (Homo sapiens) [3] = target: FXIa (Homo sapiens) (UniProt P03951)
FXIa (Homo sapiens) [4] = target: FXIa (Homo sapiens) (UniProt P03951); remark: listed apart in the source
[5] = target: Tissue factor pathway inhibitor-2 (KD1-WT) KD1 (Homo sapiens) (UniProt P48307)
[6] = target: Corn Hageman factor inhibitor (Zea mays) (UniProt P01088)
[7] = target: Protease nexin-2 (Homo sapiens) (UniProt P05067)
[8] = target: Placental bikunin (Homo sapiens) (UniProt O43291)
Aprotinin (Bos taurus) = Aprotinin (Bos taurus) (UniProt P00974)
[9] = target: KD APPH Kunitz domain (Homo sapiens) (UniProt Q06481); remark: listed apart in the source
[10] = target: KD APPH Kunitz domain (Homo sapiens) (UniProt Q06481); remark: listed apart in the source
FXIa (Homo sapiens) [11] = target: FXIa (Homo sapiens) (UniProt P03951); remark: listed apart in the source
FXIa (Homo sapiens) [12] = target: FXIa (Homo sapiens) (UniProt P03951); remark: listed apart in the source

Chain of KD APPH Kunitz domain (Homo sapiens) (Q06481 306-364): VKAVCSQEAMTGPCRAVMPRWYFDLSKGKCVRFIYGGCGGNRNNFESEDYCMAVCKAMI
Chain of Plasma kallikrein (P03952 391-638): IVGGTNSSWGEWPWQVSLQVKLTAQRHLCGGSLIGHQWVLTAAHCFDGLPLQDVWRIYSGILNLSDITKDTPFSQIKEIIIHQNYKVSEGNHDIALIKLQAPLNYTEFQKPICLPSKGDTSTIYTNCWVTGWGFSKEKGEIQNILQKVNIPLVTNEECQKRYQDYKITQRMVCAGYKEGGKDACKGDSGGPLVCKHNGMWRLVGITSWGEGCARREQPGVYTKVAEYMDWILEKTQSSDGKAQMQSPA
Chain of Protease nexin-2 (Homo sapiens) (P05067 18-687): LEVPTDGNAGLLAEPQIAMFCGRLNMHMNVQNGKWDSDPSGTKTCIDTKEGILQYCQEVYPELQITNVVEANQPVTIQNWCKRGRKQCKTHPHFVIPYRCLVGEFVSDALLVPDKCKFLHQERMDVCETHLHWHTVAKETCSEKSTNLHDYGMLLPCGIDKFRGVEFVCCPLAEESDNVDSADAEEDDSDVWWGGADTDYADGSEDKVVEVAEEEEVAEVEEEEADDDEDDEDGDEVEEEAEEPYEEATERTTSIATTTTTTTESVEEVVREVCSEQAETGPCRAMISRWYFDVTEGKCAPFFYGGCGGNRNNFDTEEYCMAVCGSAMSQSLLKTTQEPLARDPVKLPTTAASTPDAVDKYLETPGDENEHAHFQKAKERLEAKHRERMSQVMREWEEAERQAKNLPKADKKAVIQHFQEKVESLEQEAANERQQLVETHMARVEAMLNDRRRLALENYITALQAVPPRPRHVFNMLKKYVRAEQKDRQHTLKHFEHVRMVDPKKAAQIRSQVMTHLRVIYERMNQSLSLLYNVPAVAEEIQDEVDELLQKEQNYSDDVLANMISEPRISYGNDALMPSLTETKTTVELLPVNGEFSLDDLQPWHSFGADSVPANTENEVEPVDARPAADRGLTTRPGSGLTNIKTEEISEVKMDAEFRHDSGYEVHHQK
Chain of protease nexin-2 (P05067 18-687): as above
Chain of Plasmin (P00747 581-810): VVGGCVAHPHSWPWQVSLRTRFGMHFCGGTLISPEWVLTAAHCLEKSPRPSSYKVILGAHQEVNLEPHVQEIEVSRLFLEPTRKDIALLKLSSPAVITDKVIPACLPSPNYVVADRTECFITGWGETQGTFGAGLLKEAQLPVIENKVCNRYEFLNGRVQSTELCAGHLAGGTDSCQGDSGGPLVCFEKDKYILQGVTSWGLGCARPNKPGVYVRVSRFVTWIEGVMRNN
Chain of TFPI-2 (KD1-WT) KD1 (P48307 36-86): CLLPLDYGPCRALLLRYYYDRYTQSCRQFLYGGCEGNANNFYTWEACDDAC
Chain of Tissue factor pathway inhibitor-2 (KD1-WT) KD1 (Homo sapiens) (P48307 36-86): as above
Chain of Corn Hageman factor inhibitor (Zea mays) (P01088 29-138): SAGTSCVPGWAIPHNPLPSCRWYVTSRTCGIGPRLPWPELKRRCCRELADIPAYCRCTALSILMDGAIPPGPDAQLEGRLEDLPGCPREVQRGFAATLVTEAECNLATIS
Chain of corn Hageman factor inhibitor (P01088 29-138): as above
Chain of placental bikunin (O43291 28-197): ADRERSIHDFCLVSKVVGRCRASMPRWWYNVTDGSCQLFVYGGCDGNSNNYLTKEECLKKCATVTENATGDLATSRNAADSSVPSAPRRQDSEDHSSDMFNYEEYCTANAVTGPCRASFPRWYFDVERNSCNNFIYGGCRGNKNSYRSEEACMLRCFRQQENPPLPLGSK
Chain of Placental bikunin (Homo sapiens) (O43291 28-197): as above

Glandular kallikrein (from UniProt P06870)
Ki [1]: 8.8 nM

Plasmin (from UniProt P00747)
Ki [2]: 81 nM

placental bikunin (from UniProt O43291)
Ki (FXIa (Homo sapiens) [3]): 6 nM

corn Hageman factor inhibitor (from UniProt P01088)
Ki (FXIa (Homo sapiens) [4]): 5400 nM

Factor XIa (from UniProt P03951)
Ki [5]: 15 nM
Ki [6]: 5400 nM
Ki [7]: 0.4 nM
Ki [8]: 6 nM
Ki (Aprotinin (Bos taurus)): 288 nM
Ki [9]: 14 nM

Plasma kallikrein (from UniProt P03952)
Ki [10]: 86 nM

TFPI-2 (KD1-WT) KD1 (from UniProt P48307)
Ki (FXIa (Homo sapiens) [11]): 15 nM

protease nexin-2 (from UniProt P05067)
Ki (FXIa (Homo sapiens) [12]): 0.4 nM
